Article PMC2700083, “A covalent peptide inhibitor of RGS4 identified in a focused one-bead, one compound library screen” (BMC Pharmacology, 2009)
Where two headings read alike, the source gives them in different places. Bridges are numbered along the chain shown (N, C = ends).

Columns and labels:
Experiment in all cases: FCPIA (flow cytometry protein interaction assay, Luminex beads); dose curves of 5nd on RGS4 cysteine mutants (5 nM, or 20 nM for the mutants with no Cys in the domain or the C-terminus) and labeled Gαo; curves constrained to 100% and 0%
[1] = target: MBP-RGS4Δ51N with no Cys in the C-terminus (UniProt P49799)
[2] = target: MBP-RGS4Δ51N A148C in the -7C (UniProt P49799)
[3] = target: MBP-RGS4Δ51N with no Cys in the C-terminus (UniProt P49799); remark: listed apart in the source
[4] = target: MBP-RGS4Δ51N A71C in the -7C (UniProt P49799)
[5] = target: MBP-RGS4Δ51N A132C in the -7C (UniProt P49799)
[6] = target: MBP-RGS4Δ51N with no Cys in the RGS domain (UniProt P49799)
[7] = target: MBP-RGS4Δ51N -7C mutant (all 7 cysteines removed) (UniProt P49799)
[8] = target: MBP-RGS4Δ51N A95C in the -7C (UniProt P49799)

B1: Peptide 5nd (Tyr-Trp-c[Cys-Lys-Gly-Leu-Cys]-Lys-NH2, S-S) (peptide)
peptide: H-YWCKGLCK-NH2
modifications: disulfide 3-7
SMILES: CC(C)C[C@@H]1NC(=O)CNC(=O)[C@H](CCCCN)NC(=O)[C@@H](NC(=O)[C@H](Cc2c[nH]c3ccccc23)NC(=O)[C@@H](N)Cc2ccc(O)cc2)CSSC[C@@H](C(=O)N[C@@H](CCCCN)C(N)=O)NC1=O
logIC50 [1]: -4.5 log M
logIC50 [2]: -3.51 log M
logIC50 [3]: -4.39 log M
logIC50 [4]: -3.2 log M
logIC50 [5]: -3.41 log M
logIC50 [6]: -3.8 log M
logIC50 [7]: -3.24 log M
logIC50 [8]: -3.58 log M
